Test results published in PMC2660430, “Identification of Proteins Targeted by the Thioredoxin Superfamily in Plasmodium falciparum” (PLoS Pathogens, 2009).

T1: PfOAT (recombinant ornithine aminotransferase) (P. falciparum strain 3D7, UniProt Q6LFH8 1-414)
T1 construct: Ornithine aminotransferase, P. falciparum strain 3D7, Swiss-Prot Q6LFH8, PlasmoDB PFF0435w; gene amplified from a gametocyte cDNA library with primers from the start codon (NcoI) to the last codon (XhoI); Amine-coupled to a CM5 chip and oxidized on the chip with 0.5 mM DTNB before each analyte; source: E. coli BL 21 (pET28a), purified (Ni-NTA)
T1 sequence (looked up): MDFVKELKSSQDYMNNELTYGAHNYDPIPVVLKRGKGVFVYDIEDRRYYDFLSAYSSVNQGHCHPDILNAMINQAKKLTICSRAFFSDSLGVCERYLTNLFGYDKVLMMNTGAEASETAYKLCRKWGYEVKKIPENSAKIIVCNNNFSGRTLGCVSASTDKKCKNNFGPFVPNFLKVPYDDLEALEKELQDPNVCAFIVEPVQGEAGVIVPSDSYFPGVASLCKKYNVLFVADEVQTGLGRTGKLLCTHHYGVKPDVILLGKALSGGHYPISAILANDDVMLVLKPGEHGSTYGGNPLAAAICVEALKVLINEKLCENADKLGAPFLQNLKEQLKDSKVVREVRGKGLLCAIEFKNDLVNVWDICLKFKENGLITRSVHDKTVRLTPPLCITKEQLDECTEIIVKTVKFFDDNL


Experiments:
PfSAHH (recombinant …) = biological target: T2, PfSAHH (recombinant S-adenosyl-L-homocysteine hydrolase) (P. falciparum strain 3D7, UniProt P50250 1-479); assay: SPR; BIAcore X; SAHH amine-coupled to CM5 chip, oxidized with 0.5 mM DTNB; analyte 10 µM in HBS buffer (10 mM HEPES, 150 mM NaCl, 3.4 mM EDTA, 0.005% Nonidet P-40, pH 7.4), 25°C, 10 µl/min; elution with 2 mM DTT; FC2-FC1; conditions: both partners purified
T2 construct: S-adenosyl-L-homocysteine hydrolase, P. falciparum strain 3D7, Swiss-Prot Q7K6A6, PlasmoDB PFE1050w; gene amplified from a gametocyte cDNA library with primers from the start codon (NcoI) to the last codon (XhoI); Amine-coupled to a CM5 chip and oxidized on the chip with 0.5 mM DTNB before each analyte; also called oxidized SAHH; source: E. coli BL 21 (pET28a), purified (Ni-NTA)

[1] = biological target: T1, PfOAT (recombinant ornithine …); assay: SPR; BIAcore X; OAT amine-coupled to CM5 chip, oxidized with 0.5 mM DTNB; analyte 10 µM in HBS buffer (10 mM HEPES, 150 mM NaCl, 3.4 mM EDTA, 0.005% Nonidet P-40, pH 7.4), 25°C, 10 µl/min; elution with 2 mM DTT; FC2-FC1; conditions: both partners purified

T2 sequence (P50250 whole entry): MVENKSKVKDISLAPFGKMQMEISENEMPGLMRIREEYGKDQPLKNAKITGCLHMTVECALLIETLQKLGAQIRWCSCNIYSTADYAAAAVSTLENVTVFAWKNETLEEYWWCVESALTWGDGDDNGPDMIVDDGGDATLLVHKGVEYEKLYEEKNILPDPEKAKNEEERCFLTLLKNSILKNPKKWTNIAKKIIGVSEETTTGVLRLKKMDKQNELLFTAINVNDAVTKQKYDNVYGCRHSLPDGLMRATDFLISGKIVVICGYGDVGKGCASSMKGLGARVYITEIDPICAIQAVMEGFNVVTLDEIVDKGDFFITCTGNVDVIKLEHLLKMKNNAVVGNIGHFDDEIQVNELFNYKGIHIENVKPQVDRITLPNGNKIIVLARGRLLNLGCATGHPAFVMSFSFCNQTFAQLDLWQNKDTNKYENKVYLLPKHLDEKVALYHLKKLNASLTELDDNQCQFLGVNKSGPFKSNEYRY

| Binder | binding result (PfSAHH (recombinant …)) | binding result [1] |
| --- | --- | --- |
| Plrx (wild type plasmoredoxin, recombinant) (natural protein, P. falciparum, UniProt Q8I224 1-179, looked up, Plasmoredoxin (Plrx), P. falciparum, Swiss-Prot Q8I224, PlasmoDB PFC0166w; also called wild type Plrx; PfPlrx; source: E. coli M15 (pQE30), purified (Ni-NTA)) MACQVDNPPKTYPNDKTAEYEKYANYMNYLYYYQNNELKKIDSSYFKDKYLGLFFGASWCKYCVTFIDSLNIFKKNFPNVEIIYIPFDRTYQEYQSFLKNTNFYALPFDNYLYICKKYQIKNLPSFMLITPNNNILVKDAAQLIKTDEYINNLKSLIKNYIIHPKTFQFNNRFFDLFRN | binds | – |
| PfTrx1^C33S (natural protein, Thioredoxin 1 (PfTrx1), P. falciparum, PlasmoDB PF14_0545; Lacks the resolving cysteine; traps targets as a mixed disulfide through Cys 30; also called Trx^C33S; TrxC33S; source: E. coli M15 (pQE30), purified (Ni-NTA)) MVKIVTSQAEFDSIISQNELVIVDFFAEWCGPSKRIAPFYEECSKTYTKMVFIKVDVDEVSEVTEKENITSMPTFKVYKNGSSVDTLLGANDSALKQLIEKYAA | binds | binds |
